Measured values published in patent publication US20160326219A1, “OPTICALLY ACTIVATED RECEPTORS” (IST AUSTRIA (INSTITUTE OF SCIENCE AND TECHNOLOGY AUSTRIA), priority 2013, published 2016).
Read-outs that look alike come from different tables or passages of the source.

Key:
MAPK pathway = assay: Stimulation and detection of MAPK signaling, PathDetect Elk1 luciferase reporter (HEK293 cells); format: cell-based, human; conditions: for MAPK pathway activation in response to blue light: HEK293 cells expressing the fusion protein (LOV domain fused to RTK intracellular domain), ~3 μW/mm^2; for MAPK pathway activation in response to red light: HEK293 cells, PCB incubation, ~0.05 μW/mm^2
Protocol: For light stimulation of cells, an incubator (PT2499, ExoTerra/HAGEN, Holm, Germany) was equipped with 300 light emitting diodes (JS-FS505ORGB-W30 with JS-CON-004 controller, Komerci, Ebern, Germany; λmax˜630 nm (red), λmax˜530 nm (green), λmax˜470 nm (blue), bandwidth ˜±5 nm). Light intensity was controlled with an analog dimmer and measured with a digital power meter (PM120VA, Thorlabs, Munich, Germany). Intensities at maximal output were 2.3 (red), 2.6 (green) and 3.3 (blue light) W/m^2. For stimulation over extended time periods (>8 h), an aluminium box was equipped with the same light-emitting diodes and controller and placed in an incubator with standard tissue culture conditions (see below).
HEK293 cells and CHO-K1 (American Type Culture Collection (ATCC), Manassas, Va.) cells were maintained in DMEM supplemented with 10% FBS, 100 U/ml penicilin and 0.1 mg/ml streptomycin in a humidified incubator with 5% CO2 atmosphere. After trypsination, 5×10^4 cells were seeded in each well of 96-well plates (three to four wells for each construct) coated with poly-L-ornithine (Sigma, Vienna, Austria). Either transparent plates or black clear bottom plates were used. Cells were transfected using Lipofectamine 2000 (Invitrogen/LifeTech).
Phycocyanobilin (PCB; Livchem Logistics GmbH, Frankfurt a.M., Germany) was dissolved in a dark room to a stock concentration of 10 mM in DMSO. Aliquots were stored in the dark at −20° C. Prior to experiments, cells were incubated with 50 μM PCB overnight in reduced serum starve medium at 37° C. PCB could also be applied to applied to living animals as it is non-toxic even in high doses (0.17% of diet or 10 mg/kg) (McCarty (2007).
Activation of the MAPK pathway was assayed with the PathDetect Elk1 trans-Reporting System (Agilent) consisting of an Elk1 phosphorylation-dependent trans-activator and a luciferase-based trans-reporter. Cells were transfected with 213.3 ng total DNA per well (receptor, trans-activator and trans-reporter at ratio of 1:3:60 or 1:30:600) using Lipofectamine 2000. Six h after transfection medium was replaced with CO2-independent reduced serum starve medium (Gibco/Life Technologies; supplemented with 0.5% FBS, 2 mM L-Glutamine, 100 U/ml penicilin and 0.1 mg/ml streptomycin) for 18 h at 37° C. Cells were transferred and were either kept under constant illumination for 8 h or were protected from light. Chemical stimulation of imFGFR1 followed the same procedure, except that 10 nM AP20187 ((Clackson 1998); ARIAD Pharmaceuticals, Cambridge, Mass.) were added before transfer to the stimulation incubator. After incubation, plates were washed once with PBS and luciferase was detected with standard, off-the-shelf reagents. These were either Luciferase 1000 Assay System (Promega, Mannheim, Germany) in combination with a microplate reader equipped with an injector (Tecan Infinite 200 Pro, Maennedorf, Switzerland), or ONE-Glo Assay System (Promega) in combination with a microplate reader not equipped with an injector (BioTek Synergy H1). These assay systems provide equivalent results.

LOV domains = conditions: cited from earlier work

imFGFR1: chemically-inducible mFGFR1 lacking ligand-binding modules, with a single FKBP domain, SEQ ID NO: 56 [reference compound]
MAPK pathway activation in response to blue light (MAPK pathway): no effect

rtrkB-SyCP1-PHY: chimeric receptor of rat trkB catalytic domain and SyCP1-PHY, SEQ ID NO: 67
MAPK pathway activation in response to red light (MAPK pathway): activate the canonical MAPK pathway

B1: Opto-mFGFR1-R195E: Opto-mFGFR1 with charge inversion mutation R195E that prevents kinase domain dimer formation (protein)
chain: MGSSKSKPKDPSQRLDMKSGTKKSDFHSQMAVHKLAKSIPLRRQVTVSADSSASMNSGVLLVRPSRLSSSGTPMLAGVSEYELPEDPRWELPRDRLVLGKPLGEGCFGQVVLAEAIGLDKDKPNRVTKVAVKMLKSDATEKDLSDLISEMEMMKMIGKHKNIINLLGACTQDGPLYVIVEYASKGNLREYLQAREPPGLEYCYNPSHNPEEQLSSKDLVSCAYQVARGMEYLASKKCIHRDLAARNVLVTEDNVMKIADFGLARDIHHIDYYKKTTNGRLPVKWMAPEALFDRIYTHQSDVWSFGVLLWEIFTLGGSPYPGVPVEELFKLLKEGHRMDKPSNCTNELYMMMRDCWHAVPSQRPTFKQLVEDLDRIVALTSNQEYLDLSIPLDQYSPSFPDTRSSTCSSGEDSVFSHEPLPEEPCLPRHPTQLANSGLKRRVETGPDYSLVKALQMAQQNFVITDASLPDNPIVYASRGFLTLTGYSLDQILGRNCRFLQGPETDPRAVDKIRNAITKGVDTSVCLLNYRQDGTTFWNLFFVAGLRDSKGNIVNYVGVQSKVSEDYAKLLVNEQNIEYKGVRTSNMLRRKTGGSGVDYPYDVPDYALD
MAPK pathway activation in response to blue light (MAPK pathway): no MAPK pathway activation

B2: NgPA1-LOV: LOV domain of N. gaditana hypothetical protein NGA_0015702, residue 87 to 228 of K8Z861, SEQ ID NO: 12 (protein, listed as Nannochloropsis gaditana)
chain: PDYTLVKALQTAQQNFVITDPTLPDNPIVYASGGFLSLTGYQMDQILGRNCRFLQGPDTDPAAVDKIRRAIEDGTDGSVCLLNYRADGSTFWNQFFIAALRGADGNIVNYVGVQCKVSEEYASEVLKKEATSSTVAEASSKR
MAPK pathway activation in response to blue light (MAPK pathway): blue light-induced activation of MAPK signaling with amplitudes similar to that of the original Opto-mFGFR1 | Blue light intensity at which activation is already achieved (MAPK pathway): 0.25 mW/cm^2

B3: OdPA1-LOV: LOV domain of O. danica aureochrome1-like protein, residue 180 to 312 of C5NSW6, SEQ ID NO: 14 (protein, listed as Ochromonas danica)
chain: PDYSLVKALQTAQQNFVISDPSIPDNPIVYASQGFLTLTGYALSEVLGRNCRFLQGPETDPKAVEKVRKGLERGEDTTVVLLNYRKDGSTFWNQLFIAALRDGEGNVVNYLGVQCKVSEDYAKAFLKNEENEK
MAPK pathway activation in response to blue light (MAPK pathway): blue light-induced activation of MAPK signaling with amplitudes similar to that of the original Opto-mFGFR1 | Blue light intensity at which activation is already achieved (MAPK pathway): 0.25 mW/cm^2

B4: Opto-hRET: fusion of human RET catalytic domain and VfAU1-LOV, SEQ ID NO: 60 (protein)
chain: MGSSKSKPKDPSQRLDVTGHCYHKFAHKPPISSAEMTFRRPAQAFPVSYSSSSARRPSLDSMENQVSVDAFKILEDPKWEFPRKNLVLGKTLGEGEFGKVVKATAFHLKGRAGYTTVAVKMLKENASPSELRDLLSEFNVLKQVNHPHVIKLYGACSQDGPLLLIVEYAKYGSLRGFLRESRKVGPGYLGSGGSRNSSSLDHPDERALTMGDLISFAWQISQGMQYLAEMKLVHRDLAARNILVAEGRKMKISDFGLSRDVYEEDSYVKRSQGRIPVKWMAIESLFDHIYTTQSDVWSFGVLLWEIVTLGGNPYPGIPPERLFNLLKTGHRMERPDNCSEEMYRLMLQCWKQEPDKRPVFADISKDLEKMMVKRRDYLDLAASTPSDSLIYDDGLSEEETPLVDCNNAPLPRALPSTWIENKLYGRISHAFTRFTGGPDYSLVKALQMAQQNFVITDASLPDNPIVYASRGFLTLTGYSLDQILGRNCRFLQGPETDPRAVDKIRNAITKGVDTSVCLLNYRQDGTTFWNLFFVAGLRDSKGNIVNYVGVQSKVSEDYAKLLVNEQNIEYKGVRTSNMLRRKPGGSGVDYPYDVPDYALD
modifications: hRET-VfAU1-LOV
MAPK pathway activation in response to blue light (MAPK pathway): robust activation

B5: mFGFR1-SyCP1-PHY: chimeric receptor of mFGFR1 catalytic domain and SyCP1-PHY, SEQ ID NO: 66 (protein)
chain: MGSSKSKPKDPSQRLDMKSGTKKSDFHSQMAVHKLAKSIPLRRQVTVSADSSASMNSGVLLVRPSRLSSSGTPMLAGVSEYELPEDPRWELPRDRLVLGKPLGEGCFGQVVLAEAIGLDKDKPNRVTKVAVKMLKSDATEKDLSDLISEMEMMKMIGKHKNIINLLGACTQDGPLYVIVEYASKGNLREYLQARRPPGLEYCYNPSHNPEEQLSSKDLVSCAYQVARGMEYLASKKCIHRDLAARNVLVTEDNVMKIADFGLARDIHHIDYYKKTTNGRLPVKWMAPEALFDRIYTHQSDVWSFGVLLWEIFTLGGSPYPGVPVEELFKLLKEGHRMDKPSNCTNELYMMMRDCWHAVPSQRPTFKQLVEDLDRIVALTSNQEYLDLSIPLDQYSPSFPDTRSSTCSSGEDSVFSHEPLPEEPCLPRHPTQLANSGLKRRVETGATTVQLSDQSLRQLETLAIHTAHLIQPHGLVVVLQEPDLTISQISANCTGILGRSPEDLLGRTLGEVFDSFQIDPIQSRLTAGQISSLNPSKLWARVMGDDFVIFDGVFHRNSDGLLVCELEPAYTSDNLPFLGFYHMANAALNRLRQQANLRDFYDVIVEEVRRMTGFDRVMLYRFDENNHGDVIAEDKRDDMEPYLGLHYPESDIPQPARRLFIHNPIRVIPDVYGVAVPLTPAVNPSTNRAVDLTESILRSAYHCHLTYLKNMGVGASLTISLIKDGHLWGLIACHHQTPKVIPFELRKACEFFGRVVFSNISAQEDTETFDYRVQLAEHEAVLLDKMTTAADFVEGLTNHPDRLLGLTGSQGAAICFGEKLILVGETPDEKAVQYLLQWLENREVQDVFFTSSLSQIYPDAVNFKSVASGLLAIPIARHNFLLWFRPEVLQTVNWGGDPNHAYEATQEDGKIELHPRQSFDLWKEIVRLQSLPWQSVEIQSALALKKAIVNLILRQAEETGGSGVDYPYDVPDYALD
modifications: redOpto-mFGFR1
MAPK pathway activation in response to red light (MAPK pathway): activate the canonical MAPK pathway

B6: SyCP1-PHY: PHY domain of Synechocystis PCC6803 CPH1, residue 2 to 514 of Q55168, SEQ ID NO: 64 (protein)
chain: ATTVQLSDQSLRQLETLAIHTAHLIQPHGLVVVLQEPDLTISQISANCTGILGRSPEDLLGRTLGEVFDSFQIDPIQSRLTAGQISSLNPSKLWARVMGDDFVIFDGVFHRNSDGLLVCELEPAYTSDNLPFLGFYHMANAALNRLRQQANLRDFYDVIVEEVRRMTGFDRVMLYRFDENNHGDVIAEDKRDDMEPYLGLHYPESDIPQPARRLFIHNPIRVIPDVYGVAVPLTPAVNPSTNRAVDLTESILRSAYHCHLTYLKNMGVGASLTISLIKDGHLWGLIACHHQTPKVIPFELRKACEFFGRVVFSNISAQEDTETFDYRVQLAEHEAVLLDKMTTAADFVEGLTNHPDRLLGLTGSQGAAICFGEKLILVGETPDEKAVQYLLQWLENREVQDVFFTSSLSQIYPDAVNFKSVASGLLAIPIARHNFLLWFRPEVLQTVNWGGDPNHAYEATQEDGKIELHPRQSFDLWKEIVRLQSLPWQSVEIQSALALKKAIVNLILRQAEE
modifications: Synechocystis PCC6803
Red light intensity at which activation is already achieved (MAPK pathway; red light): 5.8 μW/cm^2 | Red light intensity at which activation is already achieved, converted (MAPK pathway; red light, conversion of 5.8 μW/cm^2): 0.0058 mW/cm^2

B7: NcVV-LOV: LOV domain of N. crassa vivid, residue 37 to 186 with Y50W mutation of Q9C3Y6, SEQ ID NO: 8 (protein, listed as Neurospora crassa)
chain: HTLYAPGGYDIMGWLIQIMNRPNPQVELGPVDTSCALILCDLKQKDTPIVYASEAFLYMTGYSNAEVLGRNCRFLQSPDGMVKPKSTRKYVDSNTINTMRKAIDRNAEVQVEVVNFKKNGQRFVNFLTMIPVRDETGEYRYSMGFQCETE
Kd (LOV domains; dark state, read-out: Estimated KD, Dark): < 5000 nM | Kd (LOV domains; light state, read-out: Estimated KD, Light): < 500 nM
